{"source": "the nanobody polyreactivity screen of Harvey et al. (2022)"}
{"experiment": "yeast display, Sf9 membrane polyspecificity reagent, FACS + sequencing; frameworks hold sequencing errors", "in_short": "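In a synthetic yeast display library (Saccharomyces cerevisiae BJ5465), nanobody expression was induced with galactose for 36–48 hours. FACS gates were set low and high (top ~1%) using anti-HA fluorescence for expression and streptavidin fluorescence for binding of the Sf9 membrane reagent. Each polyreactivity label is drawn from the gate of origin.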"}
{"sequence": "QVQLVESGGGLVQAGGSLRLSCAASGFTFRWYAMGWYRQAPGKERELVARIRGSGGNTYYADSVKGRFTISRDNAKNTVYLQMNSLKPEDTAVYYCAAMQSPTRSFIYRFDYWGQGTQVTVSS", "polyreactivity (PSR sort gate)": "high polyreactivity"}
{"sequence": "QVQLVESGGGLVQAGGSLRLSCAASGFTFRYNAMGWYRQAPGKERELVAAISRSGGRTYYADSVKGRFTIARDNAKNTVYLQMNSLKPEDTAVYYCAAVAARITGFGYWGQGTQVTVSS", "polyreactivity (PSR sort gate)": "high polyreactivity"}
{"sequence": "QVQLVESGGGLVQAGGSLRLSCAASGFTFRYNAMGWYRQAPGKERELVAAITWRGGRTYYADSVKGRFTISRDNAKNTVYLQMNSLKPEDTAVYYCAVYRTSTRYVVDSDYWGQGTQVTVSS", "polyreactivity (PSR sort gate)": "low polyreactivity"}
{"sequence": "QVQLVESGGGLVQAGGSLRLSCAASGFTFRYNAMGWYRQAPGKKGSWVAAISRTGGSTYYADSVKGRFTISRDNAKNTVYLQMNSLKPEDTAVYYCATYSSRQRKSSYYYWGQGTQVTVSS", "polyreactivity (PSR sort gate)": "high polyreactivity"}
{"sequence": "QVQLVESGGGLVQAGGSLRLSCAASGFTFRYYAMGWYRKAPGKERELVAAITRRGGSKYYADSVKGRFTISRDNAKNTVYLQMNSLKPEDTAVYDCAASLWTTSADYDYWGQGTQVTVSS", "polyreactivity (PSR sort gate)": "high polyreactivity"}
{"sequence": "QVQLVESGGGLVQAGGSLRLSCAASGFTFRYYAMGWYRQAPGKERELVAAISSGGNTRYADSVKGRFTISRDNAKNTVYLQMNSLKPEDTAVYYCARRPGAWKYVYTGDYWGQGTQVTVSS", "polyreactivity (PSR sort gate)": "high polyreactivity"}
{"sequence": "QVQLVESGGGLVQAGGSLRLSCAASGFTFRYYAMGWYRQAPGKERELVAAISWRGGRTYYADSVKGRFTISRDNAKNTVYIQMNSLKPEDTAVYYCAALRERQTRGNYWGQGTQVTVSS", "polyreactivity (PSR sort gate)": "high polyreactivity"}
{"sequence": "QVQLVESGGGLVQAGGSLRLSCAASGFTFRYYAMGWYRQAPGKERELVAAITRNGGSTYYADSVKGRFTISRDNAKHTVYLQMNSLKPEETAVYYCNRYGRQYDFYYWGQGTQVTVSS", "polyreactivity (PSR sort gate)": "high polyreactivity"}
{"sequence": "QVQLVESGGGLVQAGGSLRLSCAASGFTFRYYTMGWYRQAPGKERELVARITTGGSTKYADSVKGRFTISRDNAKNTVYLQMNSLKPEDTAVYYCAARQYKWWFSQDGYDYWGQGTQVTVSS", "polyreactivity (PSR sort gate)": "high polyreactivity"}
{"sequence": "QVQLVESGGGLVQAGGSLRLSCAASGFTFRYYVMGWYRQAPGTERELVAAISWTGGSTYYADSVKGRFTISRDNAKNTVYLQMTSLKPEDTAVYYCNAASLSKSDYWGQGTQVTVSS", "polyreactivity (PSR sort gate)": "high polyreactivity"}
{"sequence": "QVQLVESGGGLVQAGGSLRLSCAASGFTFSAYAMGWYRQAPGKERELVAAISWSGSRTYYADSVKGRFTISRDNAKNTVYLQMNSLKPEDTAVYYCAKEPYDTFGFYEYDYWGQGTQVTVSS", "polyreactivity (PSR sort gate)": "low polyreactivity"}
{"sequence": "QVQLVESGGGLVQAGGSLRLSCAASGFTFSDNAMGWYRQAPGKEREFVATIDWSGGSTYYADSVKGRFTISRDNAKNTVYLQMNSLKPDDTAVYYCAATFRYSTSQYLQGYDYWGQGTQVTVSS", "polyreactivity (PSR sort gate)": "low polyreactivity"}
{"sequence": "QVQLVESGGGLVQAGGSLRLSCAASGFTFSDYAMGSNRQAPGKERELVAAITSRTGTTYYADSVKWRFTISRDNAKNTVYLQMNSLKPEDTAVYYCNKVKFRSQDMDYWGQGTQVTVSS", "polyreactivity (PSR sort gate)": "high polyreactivity"}
{"sequence": "QVQLVESGGGLVQAGGSLRLSCAASGFTFSFYTMGGYRQAPGTARELVAAISRNGGSTYYADSVKGRFTISRDNAKTTDYFQMNSLKPEDTAVYYCAARARGGDWGSGDYWGQGTQVTVSS", "polyreactivity (PSR sort gate)": "high polyreactivity"}
{"sequence": "QVQLVESGGGLVQAGGSLRLSCAASGFTFSGNTMGWSRQAPGKERELVATISRTGGITYYADSVKGRFTISRDNAKNTVYLQMNSLKPEDTAVYYCNRRYYYFVYPDDYWGQGTQVTVSS", "polyreactivity (PSR sort gate)": "high polyreactivity"}
{"sequence": "QVQLVESGGGLVQAGGSLRLSCAASGFTFSGYSMGWYRPAPGKERELVAAITKSGGSTYYADSVKGRFTISRDTAKNTVYLQMNSLKPEDTAVYYCNADVLYTTEGDYWGQGTQVTVSS", "polyreactivity (PSR sort gate)": "high polyreactivity"}
{"sequence": "QVQLVESGGGLVQAGGSLRLSCAASGFTFSHYAMGWYRQAPGKERELVAAISWGGGSTYYADSVKGRFTISRDNAKNTVYLQMKSLIPEDTAVYYCARDVVYRGYYYGAFDYCGQGTQVTVSS", "polyreactivity (PSR sort gate)": "low polyreactivity"}
{"sequence": "QVQLVESGGGLVQAGGSLRLSCAASGFTFSKYAMGWYRQAPGKERELVAAITSGDDTNYADSVKGRFTISRDNAKNTVYLQMNSLKPEDTAVYYCNAEYTVYYSYWAIGVDYWGQGTQVTVSS", "polyreactivity (PSR sort gate)": "high polyreactivity"}
{"sequence": "QVQLVESGGGLVQAGGSLRLSCAASGFTFSKYVKGLYRQAPGKERELVAAISKRGGSTYYADSVKGRFTISRDYAKNTVYLQMNSLKPEDTAVYYCAARYYLEQILEKDYWVQGTQVTVSS", "polyreactivity (PSR sort gate)": "high polyreactivity"}
{"sequence": "QVQLVESGGGLVQAGGSLRLSCAASGFTFSLNTMGWYRQAPGKEREFVAAITYRTGRTYYADSVKGRFTISRDNAKNTVYLQMNSLKPDDTAVYYCNAGEHTRWYYWTPTYTTVDYWGLGTQVTVSS", "polyreactivity (PSR sort gate)": "low polyreactivity"}
{"sequence": "QVQLVESGGGLVQAGGSLRLSCAASGFTFSLYAMGWYRQAPGKERELVAAISRSGGSTYYADSVKGRFTISRDNAKKTVYLQMNSLKPEDTAVYYCNAPYSVSSIRYDYWGQGTQVTVSS", "polyreactivity (PSR sort gate)": "high polyreactivity"}
{"sequence": "QVQLVESGGGLVQAGGSLRLSCAASGFTFSNYAMGWYRQAPGKEREFVAAISGTGGSTYYADSVKGRFTISRDNAKNTVYLQMNSLKPEDTAVYYCARRRTYPPGRYYYWGQGTQVTVSS", "polyreactivity (PSR sort gate)": "high polyreactivity"}
{"sequence": "QVQLVESGGGLVQAGGSLRLSCAASGFTFSPNAMGWYRQAPGKERELVAAIDWNGGSTYYADSVKGRFTISRDNAKNTVYLQMNSLKPEDTAVYYCNADWVYWQYLTSFVTFDYWGQGTQVTVSS", "polyreactivity (PSR sort gate)": "low polyreactivity"}
{"sequence": "QVQLVESGGGLVQAGGSLRLSCAASGFTFSPYAMGWYRQAPGKERELVAAISSSGGSTYYADSVKGRFTISRDNAKNTVYLQMNSLKPEDTAVYYCATQGTRRPGKFYYWGQGTQVTVSS", "polyreactivity (PSR sort gate)": "high polyreactivity"}
{"sequence": "QVQLVESGGGLVQAGGSLRLSCAASGFTFSPYTMGWYRQAPGKEWELVATIRYDGTSTYYADSVKGRFTISRDNAKNTVFLQMNSLKPEDTEVYYCAADIWRVYSTIYYWGQGTQVTVSS", "polyreactivity (PSR sort gate)": "low polyreactivity"}
{"sequence": "QVQLVESGGGLVQAGGSLRLSCAASGFTFSPYVMGWYRQAPGKERELVATITAGGSSTFYADSVKGRFTISRDNAKNTVYLQMNSLKPEDTAVYYCNTVSPSFVYESTSDRFDYWGQGTQVTVSS", "polyreactivity (PSR sort gate)": "low polyreactivity"}
{"sequence": "QVQLVESGGGLVQAGGSLRLSCAASGFTFSQNAMGWYRQAAGKERELVAAITGDGGSTYYADSVKGRFTISRDNAKNTVFLQMNSLKPEDTAVYYCAADPSPYSAFGIYWFRYDYWGQGTQVTVSS", "polyreactivity (PSR sort gate)": "low polyreactivity"}
{"sequence": "QVQLVESGGGLVQAGGSLRLSCAASGFTFSRNAMGWYIQAPGKERELVAAISQSGGSTYYADSVKGRFTISRDNAKNTVYLQMNSLKPEDTAVYYCAAQSFAQYGWRYGYWGQGTQVTVSS", "polyreactivity (PSR sort gate)": "high polyreactivity"}
{"sequence": "QVQLVESGGGLVQAGGSLRLSCAASGFTFSRYAMGWYRQAPGKERELVAAISRSGGRTSYADSVKGRFTISRDNSKNTVFLQMNSLKPEDTAVYYCAARTATGSSSSIGYGYWGQGTQVTVSS", "polyreactivity (PSR sort gate)": "high polyreactivity"}
{"sequence": "QVQLVESGGGLVQAGGSLRLSCAASGFTFSSNAMGWFRQAPGKERELVAAISFSGTRTYYADSVKGRFTISRDNAKKTVYLQMNSLKPEDTAVYYCAAGRHYGPLSGRTKGMEYWGQGTQVTVSS", "polyreactivity (PSR sort gate)": "high polyreactivity"}
{"sequence": "QVQLVESGGGLVQAGGSLRLSCAASGFTFSSNAMGWYRQAPGKERELVAAIRSDGVRTYYADSVKGRFTISRDNAKNTVYLQMNSLKPEDTAVYYCNSVSDVRIGAGDYWGQGTQVTVSS", "polyreactivity (PSR sort gate)": "high polyreactivity"}
{"sequence": "QVQLVESGGGLVQAGGSLRLSCAASGFTFSSYAMGWYRQAPGKERELVAAITYRGGSTYYADSVKGRFTISRDNAKNTVYLQMNSLKPEDTAVYYCAARWGYRMYWGQGTQVTVSS", "polyreactivity (PSR sort gate)": "high polyreactivity"}
{"sequence": "QVQLVESGGGLVQAGGSLRLSCAASGFTFSTNAMGWYRQAPGKERELVAAISPDGGTYYADSVKGRFTISRDNAKNTVYLQMNSLKPEDTAVYYCAAVWGRGVWDLYDYWGQGTQVTVSS", "polyreactivity (PSR sort gate)": "low polyreactivity"}
{"sequence": "QVQLVESGGGLVQAGGSLRLSCAASGFTFSTYAMGWYRQAPGKESELVAAITRSGGSTYYADSVKGRFTISRDIEKNTVYLQMNSLKQEDTAVYYCATDASFYDPDLYPYGYDYWGQGTQVTVSS", "polyreactivity (PSR sort gate)": "high polyreactivity"}
{"sequence": "QVQLVESGGGLVQAGGSLRLSCAASGFTFSVNAMGWYRQAPGKERELVADIDWSGGSTYYADSVKGRFTISRDNAKNTVYLQMNSLKPEDTAVYYCSADYYSPDSYVQGSSGEYWGQGTQVTVSS", "polyreactivity (PSR sort gate)": "low polyreactivity"}
{"sequence": "QVQLVESGGGLVQAGGSLRLSCAASGFTFSWYAMGWYRQAPGKEMELVAAIDDGGSTYYADSVKGRFTISRDNAKNTVYLQMNSLKPEDTAVYYCNARGYGTLNVRRERMDYWGQGTQVTVSS", "polyreactivity (PSR sort gate)": "high polyreactivity"}
{"sequence": "QVQLVESGGGLVQAGGSLRLSCAASGFTFSWYAMGWYRQAPGKERELVAAISSAGNTNYADSVKGRFTISRDNAKNTVYLQMNSLKPEDTAVYYCAKRDYWGQGTQVTVSS", "polyreactivity (PSR sort gate)": "high polyreactivity"}
{"sequence": "QVQLVESGGGLVQAGGSLRLSCAASGFTFSWYAMGWYRQAPGKERELVAAITSGGGTNYADSVKGRFTISRDNAKNTVYLQMNSLKPEDTAVYYCAARGRWFYYLDDYWGQGTQVTVSS", "polyreactivity (PSR sort gate)": "low polyreactivity"}
{"sequence": "QVQLVESGGGLVQAGGSLRLSCAASGFTFSYNAMGWYRQAPGKERELVAAITYSAGNTYYADSVKGRFTISRDNAKNTVYLQMNSLKPEDTAVYYCNAVTKHRAITNMDYWGQGTQVTVSS", "polyreactivity (PSR sort gate)": "high polyreactivity"}
{"sequence": "QVQLVESGGGLVQAGGSLRLSCAASGFTFSYNTMGWYRQAPGKERELVAAISGSGARTYYADSVKGRFTISRDNAKNSVYLQMNSLKPEDTAVYYCNAKYGYDSEARIVKPVRYDYWGQGTQVTVSS", "polyreactivity (PSR sort gate)": "high polyreactivity"}
{"sequence": "QVQLVESGGGLVQAGGSLRLSCAASGFTFSYYAMGWYIQAPGKERELVATITWGGGRTYYADSVKGRFTISRDNAKNTVYLQMNSLKPEDTAVYYCNAERTYFQYYRNYDYWGQGTKVTVSS", "polyreactivity (PSR sort gate)": "low polyreactivity"}
{"sequence": "QVQLVESGGGLVQAGGSLRLSCAASGFTFSYYAMGWYRQAPGKERELVAAISWNGGSTYYADSVKGRFTISRDNAKNTVYLQMNSLKPEDTAVNYCAADSLLYYYDTGYEYWGQGTQVTVSS", "polyreactivity (PSR sort gate)": "high polyreactivity"}
{"sequence": "QVQLVESGGGLVQAGGSLRLSCAASGFTFSYYAMGWYRQAPGKERELVARISFSGTRTYYADSVKGRFTISRDNAKNTVYLEMNSLKPEDTAVYYCAARFGYVGITARYDYWGQGTQVTVSS", "polyreactivity (PSR sort gate)": "high polyreactivity"}
